From patent US20100285015A1 (University of Pennsylvania, published 2010) come the findings set out here.

This assay addresses T1, mouse HMGB1 (produced in E. coli (Sigma)) (mouse, UniProt P63158 1-215, limits assumed).
T1 construct: Bought reagent; also called late cytokine (HMGB1); recombinant HMGB1
T1 sequence (looked up): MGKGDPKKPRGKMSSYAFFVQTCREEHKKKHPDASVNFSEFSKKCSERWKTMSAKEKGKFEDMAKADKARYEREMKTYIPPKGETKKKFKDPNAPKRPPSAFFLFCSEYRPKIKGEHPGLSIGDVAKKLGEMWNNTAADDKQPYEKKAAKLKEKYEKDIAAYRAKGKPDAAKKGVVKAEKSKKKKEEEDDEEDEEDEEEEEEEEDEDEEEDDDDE
The assay is described as follows: agglutination of Ter119-TM loaded mouse RBCs after HMGB1 and anti-HMGB1 antibody. Here is the method: Mouse and human RBCs were washed in PBS/3% BSA buffer, resuspended in the same buffer to 10% hematocrit and incubated with Ter119-TM (final concentration […]) for 1 h. […] Then cells were washed 3 times with PBS/BSA buffer and equimolar amount of mouse HMGB1 (produced in E. coli (Sigma)) was added to the assay for 30 min at room temperature. Then RBC were washed with PBS/BSA and brought to the final hematocrit of 1% and the monoclonal Ab to mouse HMGB1 (Sigma, dilution as per manufacturer) was added to the assay placed into a V-shaped plate (total volume-100 μl).

B1: Ter119scFv-TM (thrombomodulin) fusion protein (other)
chain: RSPWPGVPTSQVKLQESGGGLVQPGGSLKLSCVASGFTFRDHWMNWVRQAPGKTMEWIGDIRPDGSDTNYAPSVRNRFTISRDNARSILYLQMSNMRSDYTATYYCVRDSPTRAGLMDAWGQGASVTVLTGGGGSGGGGSGGGGSDIQMIQSPSVLSASVGDRVTLNCKASQNINKYLNWYQQKLGEAPKVLIYNTNNLQTGIPSRFSGSGSGTDFTLTISSLQPEDFATYFCFQHYTWPTFGGGTKLELKRASSSSGSSSSGAAALSALAKLQPTGSQCVEHECFALFQGPATFLDASQACQRLQGHLMTVRSSVAADVISLLLSQSSMDLGPWIGLQLPQGCDDPVHLGPLRGFQWVTGDNHTSYSRWARPNDQTAPLCGPLCVTVSTATEAAPGEPAWEEKPCETETQGFLCEFYFTASCRPLTVNTRDPEAAHISSTYNTPFGVSGADFQTLPVGSSAAVEPLGLELVCRAPPGTSEGHWAWEATGAWNCSVENGGCEYLCNRSTNEPRCLCPRDMDLQADGRSCARPVVQSCNELCEHFCVSNAEVPGSYSCMCETGYQLAADGHRCEDVDDCKQGPNPCPQLCVNTKGGFECFCYDGYELVDGECVELLDPCFGSNCEFQCQPVSPTDYRCICAPGFAPKPDEPHKCEMFCNETSCPADCDPNSPTVCECPEGFILDEGSVCTDIDECSQGECFTSECRNFPGSYECICGPDTALAGQISKDCDPIPVREDTKEEEGSGEPPVSPTPGSPTGPPSARPVHSDYKDHDGDYKDHDIDYKDDDDK
notes: Expressed in Drosophila S2 cells from a pMT/BiP/V5-HisA plasmid; Some assays used it directly from S2 cell medium; also called Ter119-TM
Regarding B1, the binding result is recorded as “binds”.
